Series [1] has as its target T1, thrombin (human, UniProt P00734;P00734 328-363;364-622). The series can be described thus: fluorescence anisotropy. A general note: In fluorescence polarisation assays a small probe gives low polarisation when free and higher when bound to something large.
Series [2] deals with T1, thrombin. The experiment in a line: fluorescence anisotropy. This is another data set of the same source.
The target of series [3] is T1, thrombin. The experiment in a line: fluorescence anisotropy. This is another data set of the same source.
Series [4] addresses T1, thrombin. The experiment in a line: fluorescence anisotropy. The source holds these as a separate data set.
Series [5] addresses T1, thrombin. The experiment in a line: fluorescence anisotropy. This is another data set of the same source.
The target in series [6] is T1, thrombin. The experiment in a line: fluorescence anisotropy. This is another data set of the same source.
Series [7] has as its target T1, thrombin. The series can be described thus: affinity probe capillary electrophoresis.
Series [8] has as its target T1, thrombin. The series can be described thus: affinity probe capillary electrophoresis. The source holds these as a separate data set.
In series [9] the target is T1, thrombin. The experiment in a line: affinity probe capillary electrophoresis. The source holds these as a separate data set.

In general, Kd refers to a measure of binding affinity in units of concentration. Lower therefore signals tighter binding. As to GGTTGGTGTGGTTGG (structured_DNA) [15mer, Texas Red], the “apparent K (half saturation)” value came to 23.7 ± 1.1 nM with thrombin [1]; 30.4 ± 2.6 nM in the series with thrombin [2]; 29.7 ± 1.1 nM with thrombin [3]; 27.3 ± 1.6 nM with thrombin [4]; 51.8 ± 2.9 nM with thrombin [5]; 25 ± 1.5 nM in the series with thrombin [6]. For the same molecule, the dissociation constant (Kd) with thrombin [7] came out at 4.5 ± 1.4 nM.
In the case of GGTTGGTGTGGTTGG (structured_DNA) [15mer Fl (FAM)], the “apparent K (half saturation)” value worked out at 60.9 ± 5.3 nM with thrombin [8] and 49.2 ± 1.2 nM in the series with thrombin [9].

The values above are taken from article PMC8372783.
